B1: Nb2 (VHH)
VHH: QVQLVESGGGLVQAGGSLRLSCAASGRTFSIYNMGWFRQAPGKEREFVIHMNWSNGNTATAASVKDRFTISRDNAKNTVYLQMSSLKPEDTAVYYCHATTNDYDYWGQGTQVTVSS
B2: Nb15 (VHH)
VHH: EVQLVESGGGLVAAGGSLRLSCVPSTNIFSANAMGWYRQAPGKQRELVASITSGGNTNYADSVKGRFTISRDNADTVILQMNSLKPEDTAVYYCKGTAYSTTYNSVRDYWGQGTQVTVSS
B3: Nb46 (VHH)
VHH: QVQLVESGGGLVQAGGSLRLSCAVSGSTLGINAIGWYRQPPGKQRELVASISSLGTTLYAESVKGRFAISRDNAKNTGYLQMNSLKPDDTAVYYCNMRTPYMRDYWGQGTQVTVSS
B4: Nb3 (VHH)
VHH: HVQLVESGGGLVQAGGSLRLSCVASGSGFEPNAMGWYRQAPGKQRELVAGITSGGNTNYADSVKGRFTISRDNVKNTVYLQMNSLKPEDTAVYYCNAVAPRINPRGSPTNYWGQGTQVTVSS
B5: Nb4 (VHH)
VHH: QVQLVESGGGLVQAGGSLRLSCVASGSGFEPNAMGWYRQAPGKQRELVAGITSGGNANYADSVKGRFTISRDNVKNTVYLQMNSLKPEDTAVYYCNAVGPRFNPRGSPTNYWGQGTQVTVSS
B6: Nb37 (VHH)
VHH: QVQLVESGGGLVQTGGSLRLSCAASGRTFSNYVMGWFRQAPGKEREFVSSIEWNSENTFYANSVKGRFTISRDNAKNTVYLQMNSLKAEDTAVYYCAADRGSSYYYTRASEYTYWGQGTQVTVSS
B7: Nb39 (VHH)
VHH: QVQLVESGGGLVQAGGSLRLSCAASGRTFRFSAIDWYRQAPGQQREFVASISTSGRISYGHFVKGRFTISRDNAKNTMYLQMNSLKPEDTAVYYCHLAQPDVFGGGDYWGQGTQVTVSS
B8: Nb60 (VHH)
VHH: HVQLVESGGGLVQAGDSLRLSCAASERTNINYAMGWFRQAPGKERDFVAAIGWNGSIIKYAESVKGRFTISRDDAKNTVSLQMNSLKPEDTAVYYCAARIGSIANLQPREYEFAYWGQGTQVTVSS
B9: Nb55 (VHH)
VHH: DVQLVESGGGLVQAGGSLRLSCAASGRTFGSTMAWFRQAPGKERDFVAAITWSADRISYADSVKGRFTISRDNDKNIVHLQMNSLKPEDTAVYVCAARASSNTYDDPRSFAFWGQGTQVTVSS
B10: Nb58 (VHH)
VHH: QVQLVESGGGLVQAGGSLRLSCAASGRDFSSTVMGWFRQAPGKERELVAWMTVTYDITYYADSVKGRFTISKDNAKNTVYLQANSLKPDDTAVYYCASGALRVGSFSPDYWGQGTQVTVSS
B11: Nb43 (VHH)
VHH: EVQLVESGGGLVQAGGSLRLTCAASGRTFSSSTMDMGWFRQAPGKEREFVAVDAWNDGRTYYADSVKGRFTISRDNAKNTLYLQMNSLKPEDTAIYYCNLRQGCSYNGCDEYWGQGTQVTVSS
B12: Nb42 (VHH)
VHH: HVQLVESGGGLVQAGESLRLSCVASGSIFSINAMGWFRQAPGKQRELVASISNIGTTIYAESVKGRFTISRDNAKNTADLQMNSLKPEDTAIYYCNLRQGCSYNGCDEYWGQGTQVTVSS
B13: Nb48 (VHH)
VHH: HVQLVESGGGLVQAGGSLRLSCAASGSIFRHYNMGWFRQAPGKEREFVSAISWTNIGTYYADSVKGRFSISRDNNRNTAYLEMNSLKPEDTAVYYCAADRSEFGSRLYSDENEYDYWGQGTQVTVSS
B14: Nb24 (VHH)
VHH: QVQLVESGGGLVQAGGSLRLTCAASGGTFSTSTMDMGWFRQAPGKEREFVALDSWNGGRTYYADSVKGRFTISRDNAKNTLYLQMNSLKPEDTAVYYCAADTYSNYEKDDSWGYWGQGTQVTVSS
B15: Nb26 (VHH)
VHH: HVQLVESGGGLVQAGGSLRLTCAASGRTFSISTMDMGWFRQAPGKEREFVAADAWNDGRTYYADSVKGRFTISRDNAKNTLYLQMNSLKPEDTAVYYCTADTYSNYKKDDSWGYWGQGTQVTVSS
B16: Nb32 (VHH)
VHH: DVQLVESGGGLVQAGGSLRLSCAASGRTFSSDTMDMGWFRQAPGKEREFVALHSWNGGKTYYADSVKGRFTISRDNAKNTLYLQMNNLKPEDTAVYYCAAETYTLYEKDSSWGYWGQGTQVTVSS
B17: Nb28 (VHH)
VHH: HVQLVESGGGLVQAGGSLRLSCAASGRTFSTSTMDMGWFRQAPGKEREFVGADSWNDGRTYYADSVKGRFTISRDNAKNTLYLQMNNLKPEDTAVYYCAAETYSLYEKSDSWGYWGQGTQVTVSS
B18: Nb29 (VHH)
VHH: HVQLVESGGGLVQAGGSLRLTCAASGGTFSTSTMDMGWFRQAPGKEREFVAVDSWNDGRAYYADSVKGRFTISRDNAKNTLYLQMNSLKPEDTAVYYCAAETYSNYEKAYSWGYWGQGTQVTVSS
B19: Nb41 (VHH)
VHH: DVQLVESGGGLVQAGGSLRLSCAASGFTFSNYVMYWGRQAPGKGREWVSGIDSDGSDTAYASSVKGRFTISRDNAKKTLYLQMNDLKPEDTALYYCVKSKDRYGSPWTRSEFEDYWGQGTQVTVSS
B20: Nb16 (VHH)
VHH: DVQLVESGGGLVQAGESLRLSCAASGDMFSSNAMAWYRQAPGKQRELVASITSGGNTNYADSVKGRFTISRDNAKNTVYLQMDSLKPEDTAVYYCNGVAYDYSWGRPRNFWGQGTQVTVSS
B21: Nb18 (VHH)
VHH: DVQLVESGGGLVQAGGSLRLSCAASGRTFSSYNVGWFRQAPGKEREFVAFIRWSGTSTYYADSVKGRFTISRDNAKNTVYLQMNSLKPEDTAVYYCAATSRTMIHTSQAMPINWDYWGQGTQVTVSS
B22: Nb100 (VHH)
VHH: EVQLVESGGGLVQAGGSLRLSCAASGLTFSSYNMGWFRQAPGKEREFVAFIRWSGTSTYYADSVKGRFTISRDTAKNTVYLQMNSLKLEDTAVYYCAATSRTMIHTSQTMRINWDYWGQGTQVTVSS
B23: Nb84 (VHH)
VHH: DVQLVESGGGLVQAGGSLRLSCAASGRTFSSYSMGWFRQAPGKEREFVAFIRWSGTSTYYADSVKGRFTISRDNAKNTVYLQMNSLKPDDTAVYYCAASSRTMNTISQTMRINWDYWGQGTQVTVSS

What is called IC50 is the concentration that gives 50% inhibition. Low values mean higher potency, high ones lower potency.

The experiment has as its target SARS-CoV-2 spike receptor-binding domain (RBD) (SARS-CoV-2, UniProt P0DTC2 319-541). The experiment can be described thus: indirect ELISA on coated RBD ('ELISA affinity'). For orientation: ELISA stands for enzyme-linked immunosorbent assay.
Take B1: the concentration for half-maximal inhibition (IC50) came to 4.82 nM. B2 gave an IC50 of 0.47 nM. B3: the 50% inhibitory concentration (IC50) was 25.9 nM. The value for B4 was 0.48 nM; that for B5 was 0.67 nM; that for B6 was 0.38 nM. Molecule B7 yielded an IC50 of 1.49 nM. Against the preceding molecule, the IC50 is about 3.9-fold higher. With B8, the 50% inhibitory concentration (IC50) came out at 138 nM. Turning to B9, the IC50 came to 2.24 nM. With B10, the IC50 amounted to 2.68 nM.

In turn, B11 registered an IC50 of 664 nM. The molecule B12 displayed a half-inhibitory concentration (IC50) of 0.66 nM. Against the preceding molecule, the IC50 is about 1000-fold lower.

Consider B13, for which the 50% inhibitory concentration (IC50) was 1.08 nM. This IC50 is about 1.6-fold higher than that of the molecule before. Regarding B14, the IC50 came out at 0.77 nM. Consider B15, for which the IC50 was determined as 0.92 nM. B16: the IC50 worked out at 2.17 nM. In turn, B17 registered an IC50 of 0.92 nM. The result for B18 reads 1.25 nM; that for B19, 0.2 nM; that for B20, 0.37 nM. B21 showed a concentration for half-maximal inhibition (IC50) of 0.57 nM.

With B22, the concentration for half-maximal inhibition (IC50) came out at 1.04 nM. Regarding B23, the IC50 is 0.53 nM. Against the preceding molecule, the IC50 is about 2-fold lower.

Values taken from patent publication US20240043505A1 (UNIVERSITY OF PITTSBURGH OF THE COMMONWEALTH SYSTEM OF …, published 2024).
